In PMC3421056 (2012):

T1: Factor Xa (Homo sapiens, UniProt P00742)
T1 chain: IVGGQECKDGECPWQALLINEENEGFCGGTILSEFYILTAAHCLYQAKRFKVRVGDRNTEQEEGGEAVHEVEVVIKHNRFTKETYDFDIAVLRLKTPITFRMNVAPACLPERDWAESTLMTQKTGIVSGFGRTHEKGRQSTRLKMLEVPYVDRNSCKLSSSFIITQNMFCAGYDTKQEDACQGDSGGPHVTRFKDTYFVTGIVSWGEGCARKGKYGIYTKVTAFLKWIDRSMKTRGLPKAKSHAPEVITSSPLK

B1: Lufaxin 1-278 (protein)
chain: DGDEYFIGKYKEKDETLFFASYGLKRDPCQIVLGYKCSNNQTHFVLNFKTNKKSCISAIKLTSYPKINQNSDLTKNLYCQTGGIGTDNCKLVFKKRKRQIAANIEIYGIPAKKCSFKDRYIGADPLHVDSYGLPYQFDQEHGWNVERYNIFKDTRFSTEVFYHKNGLFNTQITYLAEEDSFSEAREITAKDIKKKFSIILPNEEYKRISFLDVYWFQETMRKKPKYPYIHYNGECSNENKTCELVFDTDELMTYALVKVFTNPESDGSRLKEEDLGRG
B2: Lufaxin 1-278 (protein)
chain: DGDEYFIGKYKEKDETLFFASYGLKRDPCQIVLGYKCSNNQTHFVLNFKTNKKSCISAIKLTSYPKINQNSDLTKNLYCQTGGIGTDNCKLVFKKRKRQIAANIEIYGIPAKKCSFKDRYIGADPLHVDSYGLPYQFDQEHGWNVERYNIFKDTRFSTEVFYHKNGLFNTQITYLAEEDSFSEAREITAKDIKKKFSIILPNEEYKRISFLDVYWFQETMRKKPKYPYIHYNGECSNENKTCELVFDTDELMTYALVKVFTNPESDGSRLKEEDLGRG
modifications: S2222 substrate-bound FXa

Key:
Factor Xa [1] = molecular target: T1, Factor Xa; experiment: SPR kinetics
Factor Xa [2] = molecular target: T1, Factor Xa; experiment: ITC
Factor Xa [3] = molecular target: T1, Factor Xa; experiment: SPR steady-state
Factor Xa [4] = molecular target: T1, Factor Xa; experiment: chromogenic substrate S2222 inhibition, apparent Ki
Factor Xa [5] = molecular target: T1, Factor Xa; experiment: chromogenic substrate S2222 inhibition, alphaKi

Row | Binder | Kd (Factor Xa [1]) [nM] | Kd (Factor Xa [2]) [nM] | Kd (Factor Xa [3]) [nM] | Ki (Factor Xa [4]) [nM] | Ki (Factor Xa [5]) [nM]
1 | B1 | 3.86 | 2.1 | 9.69 | 0.95 | 
2 | B2 |  |  |  |  | 2.21
